Assay results: patent publication US20120252054A1, “SYSTEM FOR TRANSFORMATION OF THE CHLOROPLAST GENOME OF SCENEDESMUS SP. AND DUNALIELLA SP” (priority 2009, published 2012)

Experiment: Endoxylanase enzyme function assay on clarified lysates
Type: biochemical, T. reesei
Details: clarified lysates of S. dimorphus transformants (parent 2 and 4), normalized for total soluble protein, pH 4.8, 42 degrees Celsius
Method: To determine if the endoxylanase produced by transformed algae cells was functional, endoxylanase activity was tested using an enzyme function assay. Briefly, algae cells were collected from TAP agar medium and suspended in BugBuster solution (Novagen). Cells were lysed by bead beating using zirconium beads. Cell lysates were clarified by centrifugation and the supernatants were normalized for total soluble protein (Coomassie Plus Protein Assay Kit, Thermo Scientific). 100 μL of each sample was mixed with 10 μL of 10× xylanase assay buffer (1M sodium acetate, pH=4.8) and 50 μL of the sample mixture was added to one well in a black 96-well plate. EnzCheck Ultra Xylanase substrate (Invitrogen) was dissolved at a concentration of 50 ug/ml in 100 mM sodium acetate pH 4.8, and 50 μL of substrate was added to each well of the microplate. The fluorescent signal was measured in a SpectraMax M2 microplate reader (Molecular Devices), with an excitation wavelength of 360 nm and an emission wavelength of 460 nm, without a cutoff filter and with the plate chamber set to 42 degrees Celsius. The fluorescence signal was measured for 15 minutes, and the enzyme velocity was calculated with Softmax Pro v5.2 (Molecular Devices). Enzyme velocities were recorded as RFU/minute. Enzyme specific activities were calculated as milliRFU per minute per μg of total soluble protein.

B1: endoxylanse: endoxylanase from T. reesei (BD11) expressed in the S. dimorphus chloroplast (protein)
chain: MVPVSFTSLLAASPPSRASCRPAAEVESVAVEKRQTIQPGTGYNNGYFYSYWNDGHGGVTYTNGPGGQFSVNWSNSGNFVGGKGWQPGTKNKVINFSGSYNPNGNSYLSVYGWSRNPLIEYYIVENFGTYNPSTGATKLGEVTSDGSVYDIYRTQRVNQPSIIGTATFYQYWSVRRNHRSSGSVNTANHFNAWAQQGLTLGTMDYQIVAVEGYFSSGSASITVSGTGDYKDDDDKSGENLYFQGHNHRHKHTG
modifications: codon optimized endoxylanase from T. reesei
notes: endoxylanase from T. reesei (BD11) expressed in the S. dimorphus chloroplast
endoxylanase activity in transformants relative to wild type cells: at least 4 fold
